The results in this text go back to patent US20220119534A1 (DRAGONFLY THERAPEUTICS, published 2022).

Test [1] concerns the target T1, Human CD16a V158 (human, UniProt P08637 17-208, biotinylated).
T1 construct: Bought recombinant receptor; also called hCD16a (V158); hFcγRIIIa V158
Briefly: SPR; control sample (low pH hold study). Background: SPR reads the build-up and loss of mass on a sensor chip optically.

For test [2], the target named is T2, Human CLEC12A-His (human, UniProt Q5QGZ9 65-265).
T2 construct: Recombinant soluble protein made in house; also called hCLEC12A-His; hCLEC12A; not shown: His tag
T2 sequence: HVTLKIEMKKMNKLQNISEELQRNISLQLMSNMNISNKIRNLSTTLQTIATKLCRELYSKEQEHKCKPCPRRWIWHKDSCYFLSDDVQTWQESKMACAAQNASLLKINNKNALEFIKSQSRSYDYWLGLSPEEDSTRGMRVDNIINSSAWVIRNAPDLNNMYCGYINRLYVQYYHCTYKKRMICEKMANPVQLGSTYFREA
Briefly: SPR; control sample (low pH hold study).

A further test concerns the target T3, mFc-hNKG2D (human, UniProt P26718 73-216).
T3 construct: extracellular domain; Recombinant mFc-tagged NKG2D dimer, made in house; also called human NKG2D; not shown: mouse Fc tag
T3 sequence (looked up): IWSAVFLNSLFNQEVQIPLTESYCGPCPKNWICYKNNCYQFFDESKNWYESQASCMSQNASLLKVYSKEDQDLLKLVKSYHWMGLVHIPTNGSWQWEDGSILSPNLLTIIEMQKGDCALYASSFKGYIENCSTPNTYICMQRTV
Briefly: SPR; sample after pH 8.0, 40 C, 2 weeks.

Test [3] addresses T1, Human CD16a V158. Briefly: SPR; sample after pH 8.0, 40 C, 2 weeks.
The target of test [4] is T2, Human CLEC12A-His. Briefly: SPR; sample after pH 8.0, 40 C, 2 weeks.
A further test concerns the target T4, De-glycosylated CLEC12A (human, UniProt Q5QGZ9 65-265, treated with PNGase F (N-linked glycans removed)).
T4 construct: Recombinant human CLEC12A after PNGase F; also called de-glycosylated hCLEC12A
T4 sequence: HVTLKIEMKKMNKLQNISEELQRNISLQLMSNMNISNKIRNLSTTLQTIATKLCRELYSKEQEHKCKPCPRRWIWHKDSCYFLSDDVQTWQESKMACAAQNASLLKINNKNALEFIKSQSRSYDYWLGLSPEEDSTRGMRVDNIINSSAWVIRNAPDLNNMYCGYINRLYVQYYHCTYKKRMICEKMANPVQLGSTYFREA
Briefly: SPR, de-glycosylated CLEC12A; average of 3 replicates.

Test [5] concerns the target T5, recombinant human CLEC12A-His (human, UniProt Q5QGZ9 65-265).
T5 construct: also called hCLEC12A-His; hCLEC12A
T5 sequence: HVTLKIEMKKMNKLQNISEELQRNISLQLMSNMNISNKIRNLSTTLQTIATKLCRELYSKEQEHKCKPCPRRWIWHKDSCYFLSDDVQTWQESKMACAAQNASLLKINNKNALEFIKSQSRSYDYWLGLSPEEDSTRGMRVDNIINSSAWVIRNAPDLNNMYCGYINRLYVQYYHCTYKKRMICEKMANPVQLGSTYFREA
Briefly: SPR.

The next test concerns the target T6, human CLEC12A-K244Q-His (human, UniProt Q5QGZ9 65-265).
T6 construct: Polymorphic variant; also called hCLEC12A-K244Q; CLEC12A (Q244)
T6 chain: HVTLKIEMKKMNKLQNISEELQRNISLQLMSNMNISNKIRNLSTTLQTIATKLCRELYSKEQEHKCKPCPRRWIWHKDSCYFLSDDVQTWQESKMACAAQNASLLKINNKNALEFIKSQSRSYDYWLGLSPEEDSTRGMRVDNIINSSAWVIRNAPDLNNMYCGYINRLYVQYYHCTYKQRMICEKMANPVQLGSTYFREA
Briefly: SPR.

The target of another test is HER2. Briefly: SPR specificity test.
In a further test the target is T7, BCMA.
T7 chain: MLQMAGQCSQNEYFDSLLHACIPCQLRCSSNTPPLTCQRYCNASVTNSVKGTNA
Briefly: SPR specificity test.

T1 sequence (P08637 17-208 F176V limits assumed): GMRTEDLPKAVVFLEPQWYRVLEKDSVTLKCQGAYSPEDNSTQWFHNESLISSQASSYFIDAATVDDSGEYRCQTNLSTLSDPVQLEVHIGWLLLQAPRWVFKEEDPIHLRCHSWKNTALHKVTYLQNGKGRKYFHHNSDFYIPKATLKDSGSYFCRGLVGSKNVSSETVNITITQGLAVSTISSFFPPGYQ

B1: AB0192 TriNKET (other)
chain: EVQLVESGGGVVQPGGSLRLSCAASGFTFNAFGMHWVRQAPGKCLEWVAFISSGSTSIYYANTVKGRFTISRDNSKNTLYLQMNSLRAEDTAVYYCARDGYPTGGAMDYWGQGTSVTVSSGGGGSGGGGSGGGGSGGGGSDIQMTQSPSSLSASVGDRVTITCKASQDIYNYLSWFQQKPGKAPKPLIYRANILVSGVPSRFSGSGSGQDYTFTISSLQPEDIATYYCLQFDAFPFTFGCGTKLEIKGSDKTHTCPPCPAPELLGGPSVFLFPPKPKDTLMISRTPEVTCVVVDVSHEDPEVKFNWYVDGVEVHNAKTKPREEQYNSTYRVVSVLTVLHQDWLNGKEYKCKVSNKALPAPIEKTISKAKGQPREPRVYTLPPCRDELTKNQVSLTCLVKGFYPSDIAVEWESNGQPENNYKTTPPVLVSDGSFTLYSKLTVDKSRWQQGNVFSCSVMHEALHNHYTQKSLSLSPG
heavy: EVQLVESGGGLVKPGGSLRLSCAASGFTFSSYSMNWVRQAPGKGLEWVSSISSSSSYIYYADSVKGRFTISRDNAKNSLYLQMNSLRAEDTAVYYCARGAPIGAAAGWFDPWGQGTLVTVSSASTKGPSVFPLAPSSKSTSGGTAALGCLVKDYFPEPVTVSWNSGALTSGVHTFPAVLQSSGLYSLSSVVTVPSSSLGTQTYICNVNHKPSNTKVDKKVEPKSCDKTHTCPPCPAPELLGGPSVFLFPPKPKDTLMISRTPEVTCVVVDVSHEDPEVKFNWYVDGVEVHNAKTKPREEQYNSTYRVVSVLTVLHQDWLNGKEYKCKVSNKALPAPIEKTISKAKGQPREPQVCTLPPSRDELTENQVSLTCLVKGFYPSDIAVEWESNGQPENNYKTTPPVLDSDGSFFLYSWLTVDKSRWQQGNVFSCSVMHEALHNHYTQKSLSLSPG
light: DIQMTQSPSSVSASVGDRVTITCRASQGISSWLAWYQQKPGKAPKLLIYAASSLQSGVPSRFSGSGSGTDFTLTISSLQPEDFATYYCQQGVSFPRTFGGGTKVEIKRTVAAPSVFIFPPSDEQLKSGTASVVCLLNNFYPREAKVQWKVDNALQSGNSQESVTEQDSKDSTYSLSSTLTLSKADYEKHKVYACEVTHQGLSSPVTKSFNRGEC
notes: the condition stands under assay; also called AB0192 Lot AB0192-005
For orientation: Kd means the concentration at which binding is half-saturated. In general, koff refers to the first-order rate constant of dissociation. As a reminder, the kon is the rate constant with which the complex forms. For B1, the dissociation constant (Kd) with Human CD16a V158 [1] came to 178 nM; with Human CLEC12A-His [2], 1.83 nM; with mFc-hNKG2D, 779 nM; with Human CD16a V158 [3] it was 173 nM; with Human CLEC12A-His [4] it was 1.66 nM; in the test with De-glycosylated CLEC12A it was 0.27 nM. Further, the koff in the test with Human CD16a V158 [1] was found to be 0.0199 s⁻¹; with Human CLEC12A-His [2], 0.00125 s⁻¹; with mFc-hNKG2D, 0.121 s⁻¹; with Human CD16a V158 [3], 0.0191 s⁻¹; in the test with Human CLEC12A-His [4] it was 0.00128 s⁻¹; in the test with De-glycosylated CLEC12A it was 0.000348 s⁻¹. Besides, the kon is 112000 M⁻¹ s⁻¹ in the test with Human CD16a V158 [1]; 685000 M⁻¹ s⁻¹ with Human CLEC12A-His [2]; 156000 M⁻¹ s⁻¹ with mFc-hNKG2D; 110000 M⁻¹ s⁻¹ with Human CD16a V158 [3]; 768000 M⁻¹ s⁻¹ with Human CLEC12A-His [4]; 1.31e+06 M⁻¹ s⁻¹ in the test with De-glycosylated CLEC12A.

B2: F3'-1602 TriNKET (other)
chain: QLQLQESGPGLVKPSETLSLTCTVSGFSLTNYGLHWIRQPPGKCLEWIGVIWSGGKTDYNPSLKSRVTISKDTSKNQFSLKLSSVQAADTAVYYCAKYDYDDSLDYWGQGTLVTVSSGGGGSGGGGSGGGGSGGGGSDIQMTQSPSSLSASVGDRVTITCHASQNINFWLSWYQQKPGKAPKLLIYEASNLHTGVPSRFSGSGSGTRFTLTISSLQPEDIATYYCQQSHSYPLTFGCGTKLEIKGSDKTHTCPPCPAPELLGGPSVFLFPPKPKDTLMISRTPEVTCVVVDVSHEDPEVKFNWYVDGVEVHNAKTKPREEQYNSTYRVVSVLTVLHQDWLNGKEYKCKVSNKALPAPIEKTISKAKGQPREPRVYTLPPCRDELTKNQVSLTCLVKGFYPSDIAVEWESNGQPENNYKTTPPVLVSDGSFTLYSKLTVDKSRWQQGNVFSCSVMHEALHNHYTQKSLSLSPG
heavy: EVQLVESGGGLVKPGGSLRLSCAASGFTFSSYSMNWVRQAPGKGLEWVSSISSSSSYIYYADSVKGRFTISRDNAKNSLYLQMNSLRAEDTAVYYCARGAPIGAAAGWFDPWGQGTLVTVSSASTKGPSVFPLAPSSKSTSGGTAALGCLVKDYFPEPVTVSWNSGALTSGVHTFPAVLQSSGLYSLSSVVTVPSSSLGTQTYICNVNHKPSNTKVDKKVEPKSCDKTHTCPPCPAPELLGGPSVFLFPPKPKDTLMISRTPEVTCVVVDVSHEDPEVKFNWYVDGVEVHNAKTKPREEQYNSTYRVVSVLTVLHQDWLNGKEYKCKVSNKALPAPIEKTISKAKGQPREPQVCTLPPSRDELTENQVSLTCLVKGFYPSDIAVEWESNGQPENNYKTTPPVLDSDGSFFLYSWLTVDKSRWQQGNVFSCSVMHEALHNHYTQKSLSLSPG
light: DIQMTQSPSSVSASVGDRVTITCRASQGISSWLAWYQQKPGKAPKLLIYAASSLQSGVPSRFSGSGSGTDFTLTISSLQPEDFATYYCQQGVSFPRTFGGGTKVEIKRTVAAPSVFIFPPSDEQLKSGTASVVCLLNNFYPREAKVQWKVDNALQSGNSQESVTEQDSKDSTYSLSSTLTLSKADYEKHKVYACEVTHQGLSSPVTKSFNRGEC
notes: CLEC12A scFv-Fc, NKG2D A49MI Fab-Fc, human IgG1 Fc; also called AB0237
Regarding B2, in test [5], the dissociation constant Kd was 0.6 nM, the off-rate constant (koff) came to 0.000496 s⁻¹ and the kon was determined as 826000 M⁻¹ s⁻¹. In the test with human CLEC12A-K244Q-His, this molecule yielded a dissociation constant Kd of 0.77 nM, a koff of 0.000436 s⁻¹ and a kon of 565000 M⁻¹ s⁻¹. In addition, the binding result with HER2 was “no binding (tested: 500 nM)”. Also, in the test with BCMA, the binding result was “no binding (tested: 500 nM)”.
